Results taken from PMC12047441.

Target: T1, His-tagged A. vinelandii NifEN heterologously expressed in E. coli, O- and L-cluster containing (AvNifEN^Ec-L) (A. vinelandii) (UniProt P08293)
T1 sequence 1: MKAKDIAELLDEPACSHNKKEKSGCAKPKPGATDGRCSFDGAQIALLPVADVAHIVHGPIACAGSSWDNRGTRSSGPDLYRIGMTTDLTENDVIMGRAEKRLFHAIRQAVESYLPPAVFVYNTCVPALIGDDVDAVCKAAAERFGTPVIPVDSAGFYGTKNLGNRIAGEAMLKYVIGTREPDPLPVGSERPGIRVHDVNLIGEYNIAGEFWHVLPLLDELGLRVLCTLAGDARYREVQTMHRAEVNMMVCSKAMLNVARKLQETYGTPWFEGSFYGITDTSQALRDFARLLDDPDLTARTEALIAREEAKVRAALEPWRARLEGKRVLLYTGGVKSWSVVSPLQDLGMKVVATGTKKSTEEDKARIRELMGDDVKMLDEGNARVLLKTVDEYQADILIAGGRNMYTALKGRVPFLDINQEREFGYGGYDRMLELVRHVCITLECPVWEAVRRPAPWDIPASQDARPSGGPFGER
T1 sequence 2: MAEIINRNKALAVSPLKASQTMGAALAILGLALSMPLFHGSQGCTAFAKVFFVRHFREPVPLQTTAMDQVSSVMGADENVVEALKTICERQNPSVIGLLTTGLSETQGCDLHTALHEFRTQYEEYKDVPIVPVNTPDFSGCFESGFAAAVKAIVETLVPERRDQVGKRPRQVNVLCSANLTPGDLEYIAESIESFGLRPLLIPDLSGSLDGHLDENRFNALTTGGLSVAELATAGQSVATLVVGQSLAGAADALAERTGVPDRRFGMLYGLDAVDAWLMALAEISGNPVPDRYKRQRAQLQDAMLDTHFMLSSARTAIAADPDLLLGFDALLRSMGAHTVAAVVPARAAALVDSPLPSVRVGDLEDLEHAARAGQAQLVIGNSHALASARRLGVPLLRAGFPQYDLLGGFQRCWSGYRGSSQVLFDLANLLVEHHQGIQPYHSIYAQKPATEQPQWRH

L-cluster occupancy of AvNifEN^Ec-L calculated from the Fe content, after in vivo transfer of the L-cluster from NifB to NifEN in E. coli: 42.9%
L-cluster occupancy of AvNifEN^Ec-L relative to native AvNifEN^L (intensity of the g = 1.94 EPR feature), after in vivo transfer of the L-cluster from NifB to NifEN in E. coli: 36%
B1: M. acetivorans NifB (MaNifB), radical SAM enzyme, L-cluster bound (enzyme)
chain: MPEENQPIKEKNNGPILGEELLRKISEHPCYDKNAQHKYGRIHLAVAPACNIQCNFCVREFDCVNESRPGVTSKVLTPEEALEKTKQILAEYPFIKVVAIAGPGDPLANDETFETFELIRNEFPEITLCMSTNGLMLPEKLPEILRTGVSTLTVTVNAIDPEIQAKIVDHIFYHGKVYKGVEAAKIQIKNQLDGIKAAIDAGIVVKVNTVLIPGINDKHIIEIAKKLNELGVYIMNVMPLINQGAFADLEPPTPEERKAVQEACEPYVMQMRHCRQCRADAYGLLAQDMSQMSEERRKVIKIQTKEDMEKARAVLEKNGKKEA
